Source: publication PMC2542413

Tests used:
[1] = target: soluble human 4-domain CD4 (human); test: ELISA; CD4 solution competition assay: Env trimers co-incubated with 2, 4 or 9 nM sCD4 in PBS at room temperature for 1 h; non-Env-bound sCD4 captured on plate-bound anti-CD4 RPA-T4 and detected with biotin-OKT-4
[2] = target: YU2 gp140-F trimers (HIV-1 (primary isolate YU2) | not stated); test: SEC; gel filtration on a Superdex 200 26/60 prep grade column; trimers separated from lower molecular weight forms

Question: How did the half-maximal binding (with 2 nM sCD4) [1] turn out when YU2 gp140-F trimers was run?
Answer: Its half-maximal binding (with 2 nM sCD4) is 7 nM.

Question: And the half-maximal binding (with 4 nM sCD4) [1]?
Answer: The half-maximal binding (with 4 nM sCD4) was 13 nM.

Question: What about the half-maximal binding (with 9 nM sCD4) [1] of the same substance?
Answer: The half-maximal binding (with 9 nM sCD4) was 26 nM.

Question: And the stoichiometry N [2]?
Answer: The stoichiometry N was 3.
